Consider 3 variants from IntAct's records for PubMed 25873389.

To fix the notation:
B1: Protein deacetylase HDAC6 (Homo sapiens), Q9UBN7 (parent)
chain: MTSTGQDSTTTRQRRSRQNPQSPPQDSSVTSKRNIKKGAVPRSIPNLAEVKKKGKMKKLGQAMEEDLIVGLQGMDLNLEAEALAGTGLVLDEQLNEFHCLWDDSFPEGPERLHAIKEQLIQEGLLDRCVSFQARFAEKEELMLVHSLEYIDLMETTQYMNEGELRVLADTYDSVYLHPNSYSCACLASGSVLRLVDAVLGAEIRNGMAIIRPPGHHAQHSLMDGYCMFNHVAVAARYAQQKHRIRRVLIVDWDVHHGQGTQFTFDQDPSVLYFSIHRYEQGRFWPHLKASNWSTTGFGQGQGYTINVPWNQVGMRDADYIAAFLHVLLPVALEFQPQLVLVAAGFDALQGDPKGEMAATPAGFAQLTHLLMGLAGGKLILSLEGGYNLRALAEGVSASLHTLLGDPCPMLESPGAPCRSAQASVSCALEALEPFWEVLVRSTETVERDNMEEDNVEESEEEGPWEPPVLPILTWPVLQSRTGLVYDQNMMNHCNLWDSHHPEVPQRILRIMCRLEELGLAGRCLTLTPRPATEAELLTCHSAEYVGHLRATEKMKTRELHRESSNFDSIYICPSTFACAQLATGAACRLVEAVLSGEVLNGAAVVRPPGHHAEQDAACGFCFFNSVAVAARHAQTISGHALRILIVDWDVHHGNGTQHMFEDDPSVLYVSLHRYDHGTFFPMGDEGASSQIGRAAGTGFTVNVAWNGPRMGDADYLAAWHRLVLPIAYEFNPELVLVSAGFDAARGDPLGGCQVSPEGYAHLTHLLMGLASGRIILILEGGYNLTSISESMAACTRSLLGDPPPLLTLPRPPLSGALASITETIQVHRRYWRSLRVMKVEDREGPSSSKLVTKKAPQPAKPRLAERMTTREKKVLEAGMGKVTSASFGEESTPGQTNSETAVVALTQDQPSEAATGGATLAQTISEAAIGGAMLGQTTSEEAVGGATPDQTTSEETVGGAILDQTTSEDAVGGATLGQTTSEEAVGGATLAQTTSEAAMEGATLDQTTSEEAPGGTELIQTPLASSTDHQTPPTSPVQGTTPQISPSTLIGSLRTLELGSESQGASESQAPGEENLLGEAAGGQDMADSMLMQGSRGLTDQAIFYAVTPLPWCPHLVAVCPIPAAGLDVTQPCGDCGTIQENWVCLSCYQVYCGRYINGHMLQHHGNSGHPLVLSYIDLSAWCYYCQAYVHHQALLDVKNIAHQNKFGEDMPHPH

In the experiment the parent is B1. The following applies: with hdac9_mouse Hdac9, Q99N13.
Sequence of hdac9_mouse Hdac9, Q99N13 (Q99N13 whole entry): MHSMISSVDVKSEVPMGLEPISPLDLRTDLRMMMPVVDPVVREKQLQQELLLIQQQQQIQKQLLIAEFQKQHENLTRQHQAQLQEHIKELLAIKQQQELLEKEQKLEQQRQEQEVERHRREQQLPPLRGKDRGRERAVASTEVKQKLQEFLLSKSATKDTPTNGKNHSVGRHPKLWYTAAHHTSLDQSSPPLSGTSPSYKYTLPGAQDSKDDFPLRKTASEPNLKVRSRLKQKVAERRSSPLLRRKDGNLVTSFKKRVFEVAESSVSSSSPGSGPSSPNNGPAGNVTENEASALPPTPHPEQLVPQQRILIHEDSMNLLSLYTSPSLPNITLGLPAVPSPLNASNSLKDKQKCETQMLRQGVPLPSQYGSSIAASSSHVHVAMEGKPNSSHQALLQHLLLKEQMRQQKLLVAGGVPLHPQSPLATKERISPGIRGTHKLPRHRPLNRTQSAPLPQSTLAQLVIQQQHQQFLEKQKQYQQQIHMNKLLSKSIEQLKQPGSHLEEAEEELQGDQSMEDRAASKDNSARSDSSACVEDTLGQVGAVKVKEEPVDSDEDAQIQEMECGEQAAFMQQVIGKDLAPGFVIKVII
As to H611A, the “effect of a mutation on the interaction” value was “decreasing interaction strength”. With H216A;H611A the entry was “disrupting interaction strength”. For H216A the value was “decreasing interaction strength”.
